US20220025050A1 (OSE IMMUNOTHERAPEUTICS, published 2022)

Columns and labels:
[1] = molecular target: T1, biotinylated Human PD1 (AcroBiosystems, reference EP-101) (human, UniProt Q15116 25-167, limits assumed, biotinylated); test: competition ELISA: PD-L2 Fc immobilised, biotinylated PD-1 mixed with the fusion at varied concentration, streptavidin-peroxidase; blocked ligand PD-L2 [following]
T1 construct: also called biotinylated recombinant human PD-1; recombinant biotinylated PD1 protein
Method: (§1) FIG. 8: Competition PD-1/PD-L1 or PD-L2 ELISA assay. […] (D): PD-1/PD-L2 antagonist activity. […] Similar protocol as PD-L1/PD-1 assay was used for revelation. In this experiment, the bifunctional molecule comprises a humanized anti-PD1 antibody having a heavy chain variable domain as disclosed in SEQ ID NO: 24 and a light chain variable domain as disclosed in SEQ ID NO:28.
(§2) Competitive ELISA assay was performed by PD-1:PD-L1 Inhibitor Screening ELISA Assay Pair (AcroBiosystems; USA; reference EP-101). In this assay, recombinant hPDL1 was immobilized on plastic at 2 μg/ml in PBS pH 7.4 buffer. […] Same ELISA protocol was performed to assess PDL2/PD1 antagonist activity by coating PD-L2 Fc recombinant protein (Sinobiological, #10292-H02H).

[2] = molecular target: T1, biotinylated Human PD1 (AcroBiosystems, …); test: competition ELISA: PD-L1 immobilized, biotinylated PD-1 at fixed concentration, antibody varied
Method: as §1, §2

[3] = molecular target: T2, recombinant hPD1 (Sino Biologicals, reference 10377-H08H) (human, UniProt Q15116 25-167); test: ELISA: hPD-1 immobilized, anti-human Fc peroxidase
T2 construct: also called Human recombinant PD-1 protein; PD1-His recombinant protein
T2 sequence (Q15116 25-167 limits assumed): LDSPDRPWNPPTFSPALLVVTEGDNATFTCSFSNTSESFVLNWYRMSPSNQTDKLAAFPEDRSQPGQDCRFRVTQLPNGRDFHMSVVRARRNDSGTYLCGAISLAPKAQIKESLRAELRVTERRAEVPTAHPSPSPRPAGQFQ

T1 sequence (Q15116 25-167 limits assumed): as above

Row | IC50 (read off the curve) [1] [µg/mL] | Binder | other results
1 | ~0.7 | Humanized anti-PD1 (VH SEQ ID NO:24, VL SEQ ID NO:28) VH fusion to Cytokine-protein A (IL-7) (other, not shown: small tags and cut ends, Bifunctional molecule; also called Anti-PD1 fused to Cytokine-protein A (IL-7), VH fusion; anti PD-1 VH IL-7) heavy: QIQLVQSGSELKKPGASVKVSCKASGYTFTHYAMNWVRQAPGQGLEWMGWINTNTGEPTYAQGFTGRFVFSLDTSVSTAYLQISSLKAEDTAVYYCAREREPGMDNWGQGTLVTVSS VL: DVVMTQSPLSLPVTLGQPASISCRSSQSLVHANTNTYLEWYQQRPGQSPRLLIYKVSNRFSGVPDRFSGSGSGTDFTLKISRVEAEDVGVYYCFQGTHVPNTFGQGTKLEIK | –
2 | – | Anti-PD1 Ab alone, no fusion (FIG. 8 / Table 5) (antibody, V domains shown, also called anti-PD1 antibody alone) VH: QIQLVQSGSELKKPGASVKVSCKASGYTFTHYAMNWVRQAPGQGLEWMGWINTNTGEPTYAQGFTGRFVFSLDTSVSTAYLQISSLKAEDTAVYYCAREREPGMDNWGQGTLVTVSS VL: DVVMTQSPLSLPVTLGQPASISCRSSQSLVHANTNTYLEWYQQRPGQSPRLLIYKVSNRFSGVPDRFSGSGSGTDFTLKISRVEAEDVGVYYCFQGTHVPNTFGQGTKLEIK | IC50 [2]: 0.184 µg/mL
3 | – | Anti-PD1 Ab alone, no fusion, FIG. 4 / Table 1 (antibody, V domains shown) VH: QIQLVQSGSELKKPGASVKVSCKASGYTFTHYAMNWVRQAPGQGLEWMGWINTNTGEPTYAQGFTGRFVFSLDTSVSTAYLQISSLKAEDTAVYYCAREREPGMDTWGQGTLVTVSS VL: DVVMTQSPLSLPVTLGQPASISCRSSQSLVHANTNTYLEWYQQRPGQSPRLLIYKVSNRFSGVPDRFSGSGSGTDFTLKISRVEAEDVGVYYCFQGTHVPNTFGQGTKLEIKR | EC50 [3]: 0.00167 µg/mL
4 | ~0.9 | Humanized anti-PD1 (VH SEQ ID NO:24, VL SEQ ID NO:28) VH fusion to CD80 (other, not shown: small tags and cut ends, Bifunctional molecule; also called anti PD-1 VH CD80) heavy: QIQLVQSGSELKKPGASVKVSCKASGYTFTHYAMNWVRQAPGQGLEWMGWINTNTGEPTYAQGFTGRFVFSLDTSVSTAYLQISSLKAEDTAVYYCAREREPGMDNWGQGTLVTVSS VL: DVVMTQSPLSLPVTLGQPASISCRSSQSLVHANTNTYLEWYQQRPGQSPRLLIYKVSNRFSGVPDRFSGSGSGTDFTLKISRVEAEDVGVYYCFQGTHVPNTFGQGTKLEIK | –
